This note sets out measurements from publication PMC8338886 (Clinical Cancer Research, 2021).

In this assay the target is T1, Human PD-L2 (human, UniProt Q9BQ51).
T1 sequence: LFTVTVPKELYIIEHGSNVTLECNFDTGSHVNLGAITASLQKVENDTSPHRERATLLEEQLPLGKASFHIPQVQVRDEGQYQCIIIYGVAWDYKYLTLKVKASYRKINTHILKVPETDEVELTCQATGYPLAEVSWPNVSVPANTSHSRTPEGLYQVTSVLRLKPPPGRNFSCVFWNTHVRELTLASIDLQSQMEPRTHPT
Description: SPR.

B1: sPD-1V1 Fc (Fc fusion)
chain: LDSPDRPWNPPTFSPALLVVTEGDNATFTCSFSNTSESFVLNWYRMSPSNQTDKLAAFPEDRGQLGQDCRFRVTQLPNGRDFHMSVVRARRSDSGTYLCSAIVLAPKIQIKESLRVELRVTERRAEVPTAHPSPSPRPAGQFQTLV
Consider B1, for which binding was characterised by a dissociation constant (Kd) of 2.95 nM.

B2: sPD-1V2 Fc (Fc fusion)
chain: LDSPDRPWNPPTFSPALLVVTEGDNATFTCSFSNTSESFVLNWYRMSPSNQTDKLAAFPEDRGQLGQDCRFRVTQLPNGRDFHMSVVRARRNDSGTYLCSAIVLAPKIQIKESLRVELRVTERRAEVPTAHPSPSPRPAGQFQTLV
For the molecule B2, the dissociation constant Kd amounted to 3.4 nM.
